Our source for the percent reduction of co-IP against wild type values is paper doi:10.1101/2021.01.18.427223.

The experiment addresses VPS35 D620N (VPS35 D620N knock-in mouse, VKI) (mouse (endogenous in brain)), Q9EQH3. Kind of experiment: co-IP. The conditions noted are these: remark: other sources report otherwise.

B1: WASH complex member FAM21, Q6PGL7 1-1334 (natural protein)
chain: MNRTSPDSERPPASEPVWERPWSVEEIRRSSQNWSLAADAGLLQFLQEFSQQTISRTHEIKKQVDGLIQETKATHCRLHNVFNDFLMLSNTQFIENRVYDEEVEEQVLKAEAEKAEQEKTREQKEIDLIPKVQEAVNYGLQVLDSAFEQLDIKAGNSDSEEDDANERVDLILEPKDLYIDRPLPYLIGSKLFMEQEDVGLGELSSEEGSVGSDRGSIVDSEDEKEEEESDEDFASHSDNDQNQHTTQISDEEEDDDGDLFADSEKEGDDIEDIEESAKSKRPTSFADELAARIKGDISNQRKEGQTDGKPQKTVKEKKERRTPADDEEDILFPPPTLTDEDFSPFGSRGGLFSNGQGLFDDEDESDLFKEAPRARPAQAPVSEELPPSPKPGKKIPAGAVSVLLGHPDVSGSTSAPSLKELQKHGQPTPGKSSHLPTPAGLFDDDDNDNDEDDNNFFMPSSSKPSKTDKVKSTAIIFDDDEGDLFKEKAEALPAASVSQTHESKTRADKTIALPSSKNLKLVSETKTQKGLFSDEEDSEDLFSSQSSSKPKSASLPSSQPPTSVSLFGDEDEEDSLFGSAAAKKQTSSLQPQSQEKAKPSEQPSKKTSALLFSSDEEDQWNIADSHTKLASDNKSKGELWDSGATQGQEAKAVKKTNLFEDDDDDEVDLFAIAKDSQKKTQRTSLLFEDDAESGSSLFGLPPTSVPSATTKKESVPKVPLLFSDEEDSEVPSGVKPEDLKVDNARVSPEVGSADVASIAQKEGLLPASDQEAGGPSDIFSSSSPLDKGAKGRTRTVLSLFDEDEDKVEDESSTCAPQDGREKGLKTDSRPKSTGVFQDEELLFSHKLQKDNDPDVDLFAGTKKIRSSVPSGGSLFGDDEDDDLFSSAKTQPVVPEKKGTLKKDHPVSLKNQDPLDSTQGSKEKSTWKTEPAQDSSGLTPFKSREPSSRIGKIQANLAINPAALLPTVALQIPGTKPVSSELAFPSSEPGRSHILESVPTLPGSVEAGVSFDLPAQADTLHSANKSRVKVRGKRRPQTRAARRLAAQESSEAEDVTVDRGPVAQLSSSPVLPNGHQPLLQPRMASGQTSSETATAPPWEGGPVLSAADRSFFVKSRPQTGNEADLFDSGDIFPKSRGSQSVEGAGVMAGEPPSHSSGGRKEKSLAFPDLSEGSSTEDLFQSVKPRAAKNRNPFPLLEDEEDLFADPRGKKNERKPDSHQDSVSKTHDIFEDDIFATEAIKPFPKKREKGRTLEPNLFDDNIDIFADLTVKPKEKSKKKVAAKSMFDDDTDDIFSSGLQAKASKPKSQSAEAASEQRSEHKVASIFDDPLNAFGSQ
In the case of B1, the percent reduction of co-IP against wild type lay within 25 to 30%.
